# Source: patent US20190367633A1 (BEIJING HANMI PHARMACEUTICAL, published 2019)
# Legend:
# [1] = biological target: T1, Recombinant human PD-1 (Beijing Yiqiao Shenzhou, Cat. No. 10377-H08H) (human, UniProt Q15116 25-167); assay: ELISA, antigen coated at 1 ug/mL
# T1 construct: Bought protein coated on the ELISA plate
# Protocol: The coating was performed at 4° C. overnight. […] Color development was terminated by adding 100 μL/well of 1 M H₂SO₄. The absorbance at 450 nm was read on a microplate reader.
# [2] = biological target: T2, PD-1 on PD-1-overexpressing CHO/PD-1 cells (GenScript, Cat. No. M00529) (UniProt Q15116 25-288, limits assumed); assay: flow cytometry, association of PKH26-stained CHO/PD-1 and CFSE-stained SK-BR-3 cells
# T2 construct: whole, on cells
# T2 sequence (Q15116 25-288 limits assumed, one chain of several): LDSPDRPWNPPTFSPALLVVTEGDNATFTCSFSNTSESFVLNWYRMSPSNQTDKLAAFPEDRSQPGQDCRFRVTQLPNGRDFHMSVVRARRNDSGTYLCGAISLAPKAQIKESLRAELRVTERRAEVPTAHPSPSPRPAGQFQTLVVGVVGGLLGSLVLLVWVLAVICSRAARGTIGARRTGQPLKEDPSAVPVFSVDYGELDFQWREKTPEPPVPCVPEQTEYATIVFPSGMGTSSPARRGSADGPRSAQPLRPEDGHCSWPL
# T1 sequence (Q15116 25-167 limits assumed): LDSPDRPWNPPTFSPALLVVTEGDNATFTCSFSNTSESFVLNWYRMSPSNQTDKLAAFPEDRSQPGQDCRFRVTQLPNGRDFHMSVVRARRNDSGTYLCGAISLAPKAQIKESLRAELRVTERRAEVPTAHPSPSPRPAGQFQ
binder,measurement,setting,value
"anti-PD-1pem/anti-HER2 heterodimeric bispecific antibody (bispecific antibody, human IgG1, kappa, also called PD-1/HER2 heterodimeric antibody; PD-1/HER2 heterodimer) heavy 1: not shown light 1: EIVLTQSPATLSLSPGERATLSCRASKGVSTSGYSYLHWYQQKPGQAPRLLIYLASYLESGVPARFSGSGSGTDFTLTISSLEPEDFAVYYCQHSRDLPLTFGGGTKVEIKRTVAAPSVFIFPPSDEQLKSGTASVVCLLNNFYPREAKVQWKVDNALQSGNSQESVTEQDSKDSTYSLSSTLTLSKADYEKHKVYACEVTHQGLSSPVTKSFNRGEC heavy 2: not shown light 2: not shown",binding result,[1],binds
same,binding result,[2],binds
